In patent US20240116985A1, “STAPLED PEPTIDES AND METHODS THEREOF” (priority 2020, published 2024):
Each block holds one binder with its values, some of them ahead of it. Starred links: 1 amine or outer side, 2 acyl side, 3 side chain; linkers in the order of their positions; H or OH if unused. Positions of bridges follow the written chain, without caps; N, C: chain ends. Non-standard residues stand in square brackets, D forms with d. Primed or numbered codes have the meaning given here. (CH2CMe2CO2H)TriAzDap = (S)-3-(1-(2-amino-2-carboxyethyl)-1H-1,2,3-triazol-4-yl)-2,2-dimethylpropanoic acid, CC(C)(Cc1cn(C[C@H](N[*:1])C(=O)[*:2])nn1)C(=O)[*:3]; (CMe2CO2H)TriAzDap = (S)-2-amino-3-(4-(2-carboxypropan-2-yl)-1H-1,2,3-triazol-1-yl)propanoic acid, CC(C)(C(=O)[*:3])c1cn(C[C@H](N[*:1])C(=O)[*:2])nn1; PyrS2″ = (S)-3-amino-1-((pent-4-en-1-yloxy)carbonyl)pyrrolidine-3-carboxylic acid (stapling residue), C=CCCCOC(=O)N1CC[C@@](N[*:1])(C(=O)[*:2])C1; (CH2CH2CO2H)TriAzDap = (S)-2-amino-3-(4-(2-carboxyethyl)-1H-1,2,3-triazol-1-yl)propanoic acid, O=C([C@H](Cn1cc(CCC(=O)[*:3])nn1)N[*:1])[*:2]; B5(4) = 2,2-bis(4-pentenyl)glycine = 2-amino-2-(pent-4-en-1-yl)hept-6-enoic acid (stitching residue), C=CCCCC(CCCC=C)(N[*:1])C(=O)[*:2]; B5(5) = 2,2-bis(4-pentenyl)glycine, 2-amino-2-(pent-4-en-1-yl)hept-6-enoic acid (stitching residue), C=CCCCC(CCCC=C)(N[*:1])C(=O)[*:2]; PyrS2 = (S)-3-amino-1-((pent-4-en-1-yloxy)carbonyl)pyrrolidine-3-carboxylic acid, C=CCCCOC(=O)N1CC[C@@](N[*:1])(C(=O)[*:2])C1; B5(13) = 2-amino-2-(pent-4-en-1-yl)hept-6-enoic acid (two alkene chains), C=CCCCC(CCCC=C)(N[*:1])C(=O)[*:2]; 2COOHF = (S)-2-(2-amino-2-carboxyethyl)benzoic acid, O=C([C@H](Cc1ccccc1C(=O)[*:3])N[*:1])[*:2]; B5(3) = 2,2-bis(4-pentenyl)glycine (stitching residue), C=CCCCC(CCCC=C)(N[*:1])C(=O)[*:2]; Phe(3-COOH) = N[C@@H](Cc1cccc(C(=O)O)c1)C(=O)O; Phe(2-CF3) = N[C@@H](Cc1ccccc1C(F)(F)F)C(=O)O; Phe(2-Cl) = N[C@@H](Cc1ccccc1Cl)C(=O)O; Phe(2-OMe) = COc1ccccc1C[C@H](N)C(=O)O; 1Nal = N[C@@H](Cc1cccc2ccccc12)C(=O)O; 2Nal = N[C@@H](Cc1ccc2ccccc2c1)C(=O)O; Bta = N[C@@H](Cc1csc2ccccc12)C(=O)O; αAllylPro = C=CC[C@@]1(C(=O)O)CCCN1; tBuAla = CC(C)(C)C[C@H](N)C(=O)O; 3Thi = N[C@@H](Cc1ccsc1)C(=O)O; S8 = C=CCCCCCC[C@](C)(N)C(=O)O

Tests used:
Bcat-Halo = Bcat-Halo (UniProt P35222); assay: NanoBRET Abs IC50, HEK293 cells, B-cat-Halo / TCF4-Luc engagement
Chain of Bcat-Halo (P35222 whole entry): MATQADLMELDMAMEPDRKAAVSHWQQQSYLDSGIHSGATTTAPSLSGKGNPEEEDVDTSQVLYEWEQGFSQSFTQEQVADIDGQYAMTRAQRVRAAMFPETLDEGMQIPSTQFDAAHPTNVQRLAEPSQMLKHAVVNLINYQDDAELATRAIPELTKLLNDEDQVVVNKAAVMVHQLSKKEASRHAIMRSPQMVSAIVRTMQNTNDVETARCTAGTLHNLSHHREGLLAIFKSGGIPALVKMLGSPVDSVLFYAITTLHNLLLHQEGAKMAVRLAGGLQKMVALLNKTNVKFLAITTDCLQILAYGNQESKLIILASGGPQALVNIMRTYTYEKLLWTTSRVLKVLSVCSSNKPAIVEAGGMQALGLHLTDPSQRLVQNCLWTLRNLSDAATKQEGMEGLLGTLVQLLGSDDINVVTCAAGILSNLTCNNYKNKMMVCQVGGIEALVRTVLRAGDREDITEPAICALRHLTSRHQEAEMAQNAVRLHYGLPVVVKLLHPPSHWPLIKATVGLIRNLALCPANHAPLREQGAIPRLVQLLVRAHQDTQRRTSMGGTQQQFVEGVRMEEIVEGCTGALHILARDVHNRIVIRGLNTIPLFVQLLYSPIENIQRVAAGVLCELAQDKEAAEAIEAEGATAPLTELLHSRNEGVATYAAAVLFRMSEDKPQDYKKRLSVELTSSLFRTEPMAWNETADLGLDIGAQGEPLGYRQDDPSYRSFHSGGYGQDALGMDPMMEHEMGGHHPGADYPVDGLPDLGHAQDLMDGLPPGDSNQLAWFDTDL

[1] = target: full-length beta-Catenin (Uniprot ID P35222) (Homo sapiens (Human)) (UniProt P35222); assay: fluorescence polarization competition against 5FAM-TCF4 10-53 on full-length beta-catenin
Target sequence in this assay (P35222 whole entry, one chain of several): as the sequence (P35222 whole entry) above

[2] = target: full-length beta-Catenin (Uniprot ID P35222) (Homo sapiens (Human)) (UniProt P35222); assay: AlphaScreen competition vs biotin-TCF4(10-53) on full-length beta-catenin
Target sequence in this assay (P35222 whole entry, one chain of several): as the sequence (P35222 whole entry) above

[3] = target: B-cat-Halo (NanoBRET construct) (UniProt P35222); assay: NanoBRET Abs IC50; Bcat-Halo/TCF4-Luc in HEK293 cells, competitor TCF4-Luc
Chain of B-cat-Halo (NanoBRET construct) (P35222 whole entry): as above

[4] = target: full-length beta-Catenin (Uniprot ID P35222) (Homo sapiens (Human)) (UniProt P35222); assay: fluorescence polarization competition; full-length beta-catenin, 5FAM-TCF4(10-53) probe
Target sequence in this assay (P35222 whole entry, one chain of several): as the sequence (P35222 whole entry) above

[5] = target: B-cat-Halo (beta-catenin HaloTag NanoBRET construct expressed in HEK293 cells) (UniProt P35222); assay: NanoBRET in HEK293 cells, Bcat-Halo + TCF4-Luc (competitor partner TCF4)
Chain of B-cat-Halo (beta-catenin HaloTag NanoBRET construct expressed in HEK293 cells) (P35222 whole entry): as above

[6] = target: full-length beta-Catenin (Uniprot ID P35222) (Homo sapiens (Human)) (UniProt P35222); assay: fluorescence polarization competition; 10 nM full-length beta-catenin with 10 nM 5FAM-TCF4(10-53) probe as competitor
Target sequence in this assay (P35222 2-781 limits assumed): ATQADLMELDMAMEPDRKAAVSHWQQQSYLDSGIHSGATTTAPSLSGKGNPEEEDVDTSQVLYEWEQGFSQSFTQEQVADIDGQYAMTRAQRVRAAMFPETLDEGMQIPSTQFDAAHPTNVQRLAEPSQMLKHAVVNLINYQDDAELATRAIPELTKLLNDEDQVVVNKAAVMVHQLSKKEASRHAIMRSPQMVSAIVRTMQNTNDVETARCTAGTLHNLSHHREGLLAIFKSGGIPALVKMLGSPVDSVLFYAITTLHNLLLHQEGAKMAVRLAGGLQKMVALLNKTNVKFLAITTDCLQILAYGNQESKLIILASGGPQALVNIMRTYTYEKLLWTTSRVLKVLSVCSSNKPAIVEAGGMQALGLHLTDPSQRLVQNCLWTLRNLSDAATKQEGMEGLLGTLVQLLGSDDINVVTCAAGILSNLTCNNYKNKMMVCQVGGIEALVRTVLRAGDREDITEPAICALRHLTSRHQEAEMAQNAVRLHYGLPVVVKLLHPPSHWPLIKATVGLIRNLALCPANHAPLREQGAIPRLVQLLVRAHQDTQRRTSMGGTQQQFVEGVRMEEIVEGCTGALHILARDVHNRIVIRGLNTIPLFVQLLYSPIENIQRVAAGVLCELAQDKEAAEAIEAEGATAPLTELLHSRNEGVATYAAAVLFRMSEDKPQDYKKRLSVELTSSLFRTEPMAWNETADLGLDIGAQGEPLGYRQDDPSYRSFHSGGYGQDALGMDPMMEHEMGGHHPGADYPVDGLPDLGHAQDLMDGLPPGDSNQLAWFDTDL

[7] = target: full-length beta-Catenin (Uniprot ID P35222) (Homo sapiens (Human)) (UniProt P35222); assay: fluorescence polarization competition: peptide titrated against 10 nM full-length beta-catenin + 10 nM 5FAM-TCF4(10-53) probe
Target sequence in this assay (P35222 2-781 limits assumed): as above

[8] = target: full-length beta-Catenin (Uniprot ID P35222) (Homo sapiens (Human)) (UniProt P35222); assay: fluorescence polarization competition; peptide displaces 5FAM-TCF4(10-53) from full-length beta-catenin
Target sequence in this assay (P35222 2-781 limits assumed): as above

[9] = target: B-cat-Halo (beta-catenin HaloTag NanoBRET construct expressed in HEK293 cells) (UniProt P35222); assay: NanoBRET Abs IC50 in HEK293 cells; Bcat-Halo, TCF4-Luc as competitor
[10] = target: full-length beta-Catenin (Uniprot ID P35222) (Homo sapiens (Human)) (UniProt P35222); assay: FP competition: displacement of 5FAM-TCF4(10-53) from full-length beta-catenin
Target sequence in this assay (P35222 whole entry, one chain of several): as the sequence (P35222 whole entry) above

[11] = target: full-length beta-Catenin (Uniprot ID P35222) (Homo sapiens (Human)) (UniProt P35222); assay: fluorescence polarization competition; full-length beta-catenin, 5FAM-TCF4(10-53) probe as competitor
Target sequence in this assay (P35222 2-781 limits assumed): as the sequence (P35222 2-781 limits assumed) above

[12] = target: B-cat-Halo (beta-catenin HaloTag NanoBRET construct expressed in HEK293 cells) (UniProt P35222); assay: NanoBRET in HEK293 cells, Bcat-Halo + TCF4-Luc, peptide at 10 uM

Binder: Ac-[αAllylPro]DA[B5(4)]D[2Nal]AAFS[S8]F[Bta]Q-NH2 (staple 1-4, 4-11) [I-298]
EC50 [2]: 3860 nM

Binder: Ac-[αAllylPro]DA[B5(4)]D[2Nal]AAFV[S8]F[Bta]Q-NH2 (staple 1-4, 4-11) [I-297]
EC50 [2]: 5810 nM

Binder: Ac-[αAllylPro]D[tBuAla][B5(3)]DDAAFF[PyrS2″][3Thi][Bta]Q-NH2 (staple 1-4, 4-11) [I-807]
IC50 [5]: 5300 nM
IC50 [6]: 5 nM
EC50 [7]: 5 nM

Binder: Ac-[αAllylPro]D[tBuAla][B5(5)]DEAAFN[PyrS2][3Thi][Bta]-NH2 (staple 1-4, 4-11) [I-786]
IC50 [5]: 17100 nM
IC50 [8]: 8 nM
EC50 [7]: 8 nM

Binder: Ac-[αAllylPro]D[tBuAla][B5(5)]DDAAFT[PyrS2″][3Thi][1Nal]Q-NH2 (staple 1-4, 4-11) [I-1232]
IC50 [9]: 43300 nM
EC50 [10]: 31 nM
IC50 [11]: 31 nM

Binder: Ac-[αAllylPro]D[tBuAla][B5(13)]DDAAFN[PyrS2][Phe(2-OMe)][Bta]H-NH2 (staple 1-4, 4-11) [I-781]
NanoBRET % inh @ 10 uM [12]: 24%
IC50 [5]: 11600 nM
IC50 [8]: 5 nM
EC50 [7]: 5 nM

Binder: Ac-[αAllylPro]DA[B5(4)]D[2Nal]AAFQ[S8]F[Bta]A-NH2 (staple 1-4, 4-11) [I-296]
EC50 [2]: 1910 nM

Results, then the binder that gave them:

IC50 (Bcat-Halo): 6200 nM
IC50 [1]: 7 nM
Binder: Ac-[αAllylPro]D[tBuAla][B5(4)]D[(CH2CH2CO2H)TriAzDap]QAFL[PyrS2″][Phe(2-CF3)][Bta]A-NH2 (staple 1-4, 4-11) [I-2367]

IC50 (Bcat-Halo): 9500 nM
IC50 [1]: 14 nM
Binder: Ac-[αAllylPro]D[tBuAla][B5(4)]D[(CMe2CO2H)TriAzDap]QAFL[PyrS2″][Phe(2-CF3)][Bta]A-NH2 (staple 1-4, 4-11) [I-2369]

IC50 [3]: 12000 nM
IC50 [4]: 69 nM
Binder: Ac-[αAllylPro]D[tBuAla][B5(5)]D[2COOHF]AAFF[PyrS2″][Phe(2-Cl)][Bta]S-NH2 (staple 1-4, 4-11) [I-1662]

IC50 (Bcat-Halo): 5000 nM
IC50 [1]: 246 nM
Binder: Ac-[αAllylPro]D[tBuAla][B5(5)]D[Phe(3-COOH)]AAFL[PyrS2″][Phe(2-CF3)][Bta]QLV-NH2 (staple 1-4, 4-11) [I-2379]

IC50 (Bcat-Halo): 5000 nM
IC50 [1]: 5 nM
Binder: Ac-[αAllylPro]D[tBuAla][B5(4)]D[(CH2CMe2CO2H)TriAzDap]QAFL[PyrS2″][Phe(2-CF3)][Bta]A-NH2 (staple 1-4, 4-11) [I-2368]

IC50 [9]: 54500 nM
EC50 [10]: 24 nM
IC50 [11]: 24 nM
Binder: Ac-[αAllylPro]D[tBuAla][B5(5)]DDAAFT[PyrS2″][3Thi][2Nal]Q-NH2 (staple 1-4, 4-11) [I-1233]
